Results reported in paper doi:10.1101/2022.02.17.480751 (bioRxiv, 2022).

Columns and labels:
[1] = target: SARS-CoV-2 S receptor-binding domain (RBD, residues 329-538, Wuhan-Hu-1), Strep-tagged (SARS-CoV-2, Wuhan-Hu-1, UniProt P0DTC2); test: ELISA
[2] = target: SARS-CoV-2 S1 (residues 1-682, Wuhan-Hu-1), Strep-tagged (SARS-CoV-2, Wuhan-Hu-1, UniProt P0DTC2); test: ELISA

B1: 87G7 human monoclonal antibody (recombinant human IgG1/kappa) (antibody, V domains shown)
VH: EVQLLESGGGLVQPGGSLRLSCVASGFTFSSYVMSWVRQAPGKGLEWVAAISGSGGNTYYADSVKGRFTISRDNSKNTLYLQMNSLRAEDTAVYYCAKEGTYYYGSGSFWGQGTLVTVSS
VL: EIVLTQSPATLSLSPGERATLSCRASQSFHNYLAWYQQKPGRAPRLLIFDASNRATGIPARFSGSGSGTDFTLTISSLEPEDFAVYYCQQRFNWPLTFGGGTKVEIK
binding result [1]: binds | binding result [2]: binds

B2: REGN10987 (recombinant human IgG1/kappa) (antibody, V domains shown)
VH: QVQLVESGGGVVQPGRSLRLSCAASGFTFSNYAMYWVRQAPGKGLEWVAVISYDGSNKYYADSVKGRFTISRDNSKNTLYLQMNSLRTEDTAVYYCASGSDYGDYLLVYWGQGTLVTVSS
VL: QSALTQPASVSGSPGQSITISCTGTSSDVGGYNYVSWYQQHPGKAPKLMIYDVSKRPSGVSNRFSGSKSGNTASLTISGLQSEDEADYYCNSLTSISTWVFGGGTKLTVL
binding result [2]: binds

B3: REGN10933 (recombinant human IgG1/kappa) (antibody, V domains shown)
VH: QVQLVESGGGLVKPGGSLRLSCAASGFTFSDYYMSWIRQAPGKGLEWVSYITYSGSTIYYADSVKGRFTISRDNAKSSLYLQMNSLRAEDTAVYYCARDRGTTMVPFDYWGQGTLVTVSS
VL: DIQMTQSPSSLSASVGDRVTITCQASQDITNYLNWYQQKPGKAPKLLIYAASNLETGVPSRFSGSGSGTDFTFTISGLQPEDIATYYCQQYDNLPLTFGGGTKVEIK
binding result [2]: binds
